# Non-standard residues stand in square brackets, D forms with d. No end group written: not given here. *: point of attachment. Desaminotyrosyl = O=C(CCc1ccc(O)cc1)*; NMeY = CN[C@@H](Cc1ccc(O)cc1)C(=O)O; hArg = N=C(N)NCCCC[C@H](N)C(=O)O; Agmatine = N=C(N)NCCCCN*; Nle = CCCC[C@H](N)C(=O)O; Orn = NCCC[C@H](N)C(=O)O; Abu = CC[C@H](N)C(=O)O; GABA = NCCCC(=O)O
# T1: GHRH receptor of human pituitary membranes (human, UniProt Q02643)
# T1 sequence: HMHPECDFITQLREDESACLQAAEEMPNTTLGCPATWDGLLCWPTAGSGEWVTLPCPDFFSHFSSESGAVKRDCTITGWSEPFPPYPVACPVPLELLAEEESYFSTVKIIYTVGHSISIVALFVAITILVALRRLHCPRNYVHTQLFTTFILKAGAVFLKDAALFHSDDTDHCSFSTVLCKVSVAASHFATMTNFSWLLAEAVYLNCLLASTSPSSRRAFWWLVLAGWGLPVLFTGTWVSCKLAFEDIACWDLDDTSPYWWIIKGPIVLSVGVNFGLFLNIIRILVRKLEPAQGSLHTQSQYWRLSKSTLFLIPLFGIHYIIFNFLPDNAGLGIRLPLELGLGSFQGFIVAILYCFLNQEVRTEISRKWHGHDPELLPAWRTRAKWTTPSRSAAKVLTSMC
# B1: P-29702 [Dat^1, D-Ala^2, Orn^12, Abu^15, Orn^21, Nle^27, Gln-Gab^30]hGHRH(1-30)NH2 (peptide)
# peptide: [Desaminotyrosyl][dA]DAIFTNSYR[Orn]VL[Abu]QLSAR[Orn]LLQDI[Nle]SRQ-{GABA-NH2}
# SMILES: CCCC[C@H](NC(=O)[C@@H](NC(=O)[C@H](CC(=O)O)NC(=O)[C@H](CCC(N)=O)NC(=O)[C@H](CC(C)C)NC(=O)[C@H](CC(C)C)NC(=O)[C@H](CCCN)NC(=O)[C@H](CCCNC(=N)N)NC(=O)[C@H](C)NC(=O)[C@H](CO)NC(=O)[C@H](CC(C)C)NC(=O)[C@H](CCC(N)=O)NC(=O)[C@H](CC)NC(=O)[C@H](CC(C)C)NC(=O)[C@@H](NC(=O)[C@H](CCCN)NC(=O)[C@H](CCCNC(=N)N)NC(=O)[C@H](Cc1ccc(O)cc1)NC(=O)[C@H](CO)NC(=O)[C@H](CC(N)=O)NC(=O)[C@@H](NC(=O)[C@H](Cc1ccccc1)NC(=O)[C@@H](NC(=O)[C@H](C)NC(=O)[C@H](CC(=O)O)NC(=O)[C@@H](C)NC(=O)CCc1ccc(O)cc1)[C@@H](C)CC)[C@@H](C)O)C(C)C)[C@@H](C)CC)C(=O)N[C@@H](CO)C(=O)N[C@@H](CCCNC(=N)N)C(=O)N[C@@H](CCC(N)=O)C(=O)NCCCC(N)=O
# B2: P-25502 [Dat^1, D-Ala^2, Fpa5^6, Orn^12, Abu^15, Orn^21, Nle^27, Gab^30]hGHRH(1-30)NH2 (peptide)
# peptide: YADAIFTNSYRKVLGQLSARKLLQDIMSRQ
# modifications: Dat^1; D-Ala^2; Fpa5^6; Orn^12; Abu^15; Orn^21; Nle^27; Gab^30 (in place of Gln^30); C-terminal -NH2
# B3: P-20351 [Ac-N-Me-Tyr^1, D-Ala^2, Gln^8, Orn^12, Abu^15, Orn^21, Nle^27, Asp^28, Agm^29]hGHRH(1-29)NH2 (peptide)
# peptide: Ac-[NMeY][dA]DAIFTQSYR[Orn]VL[Abu]QLSAR[Orn]LLQDI[Nle]D[Agmatine]
# SMILES: CCCC[C@H](NC(=O)[C@@H](NC(=O)[C@H](CC(=O)O)NC(=O)[C@H](CCC(N)=O)NC(=O)[C@H](CC(C)C)NC(=O)[C@H](CC(C)C)NC(=O)[C@H](CCCN)NC(=O)[C@H](CCCNC(=N)N)NC(=O)[C@H](C)NC(=O)[C@H](CO)NC(=O)[C@H](CC(C)C)NC(=O)[C@H](CCC(N)=O)NC(=O)[C@H](CC)NC(=O)[C@H](CC(C)C)NC(=O)[C@@H](NC(=O)[C@H](CCCN)NC(=O)[C@H](CCCNC(=N)N)NC(=O)[C@H](Cc1ccc(O)cc1)NC(=O)[C@H](CO)NC(=O)[C@H](CCC(N)=O)NC(=O)[C@@H](NC(=O)[C@H](Cc1ccccc1)NC(=O)[C@@H](NC(=O)[C@H](C)NC(=O)[C@H](CC(=O)O)NC(=O)[C@@H](C)NC(=O)[C@H](Cc1ccc(O)cc1)N(C)C(C)=O)[C@@H](C)CC)[C@@H](C)O)C(C)C)[C@@H](C)CC)C(=O)N[C@@H](CC(=O)O)C(=O)NCCCCNC(=N)N
# B4: P-27401 [Dat^1, D-Ala^2, Gln^8, Orn^12, Abu^15, Orn^21, Nle^27, Asp^28, D-Arg^29]hGHRH(1-29)NH-CH3 (peptide)
# peptide: [Desaminotyrosyl][dA]DAIFTQSYR[Orn]VL[Abu]QLSAR[Orn]LLQDI[Nle]D[dR]-NHMe
# SMILES: CCCC[C@H](NC(=O)[C@@H](NC(=O)[C@H](CC(=O)O)NC(=O)[C@H](CCC(N)=O)NC(=O)[C@H](CC(C)C)NC(=O)[C@H](CC(C)C)NC(=O)[C@H](CCCN)NC(=O)[C@H](CCCNC(=N)N)NC(=O)[C@H](C)NC(=O)[C@H](CO)NC(=O)[C@H](CC(C)C)NC(=O)[C@H](CCC(N)=O)NC(=O)[C@H](CC)NC(=O)[C@H](CC(C)C)NC(=O)[C@@H](NC(=O)[C@H](CCCN)NC(=O)[C@H](CCCNC(=N)N)NC(=O)[C@H](Cc1ccc(O)cc1)NC(=O)[C@H](CO)NC(=O)[C@H](CCC(N)=O)NC(=O)[C@@H](NC(=O)[C@H](Cc1ccccc1)NC(=O)[C@@H](NC(=O)[C@H](C)NC(=O)[C@H](CC(=O)O)NC(=O)[C@@H](C)NC(=O)CCc1ccc(O)cc1)[C@@H](C)CC)[C@@H](C)O)C(C)C)[C@@H](C)CC)C(=O)N[C@@H](CC(=O)O)C(=O)N[C@H](CCCNC(=N)N)C(=O)NC
# B5: P-25504 [Dat^1, D-Abu^2, Orn^12, Abu^15, Orn^21, Nle^27, Gab^30]hGHRH(1-30)NH2 (peptide)
# peptide: B2 peptide
# modifications: Dat^1; D-Abu^2; Orn^12; Abu^15; Orn^21; Nle^27; Gab^30 (in place of Gln^30); C-terminal -NH2
# B6: P-20350 [Dat^1, D-Ala^2, Gln^8, Orn^12, Abu^15, Orn^21, Nle^27, Asp^28, Agm^29]hGHRH(1-29)NH2 (peptide)
# peptide: [Desaminotyrosyl][dA]DAIFTQSYR[Orn]VL[Abu]QLSAR[Orn]LLQDI[Nle]D[Agmatine]
# SMILES: CCCC[C@H](NC(=O)[C@@H](NC(=O)[C@H](CC(=O)O)NC(=O)[C@H](CCC(N)=O)NC(=O)[C@H](CC(C)C)NC(=O)[C@H](CC(C)C)NC(=O)[C@H](CCCN)NC(=O)[C@H](CCCNC(=N)N)NC(=O)[C@H](C)NC(=O)[C@H](CO)NC(=O)[C@H](CC(C)C)NC(=O)[C@H](CCC(N)=O)NC(=O)[C@H](CC)NC(=O)[C@H](CC(C)C)NC(=O)[C@@H](NC(=O)[C@H](CCCN)NC(=O)[C@H](CCCNC(=N)N)NC(=O)[C@H](Cc1ccc(O)cc1)NC(=O)[C@H](CO)NC(=O)[C@H](CCC(N)=O)NC(=O)[C@@H](NC(=O)[C@H](Cc1ccccc1)NC(=O)[C@@H](NC(=O)[C@H](C)NC(=O)[C@H](CC(=O)O)NC(=O)[C@@H](C)NC(=O)CCc1ccc(O)cc1)[C@@H](C)CC)[C@@H](C)O)C(C)C)[C@@H](C)CC)C(=O)N[C@@H](CC(=O)O)C(=O)NCCCCNC(=N)N
# B7: P-23252 [Dat^1-D-Ala^2, Orn^12, Abu^15, Orn^21, Nle^27, Asp^28, Har^30]hGHRH(1-30)NH2 (peptide)
# peptide: [Desaminotyrosyl][dA]DAIFTNSYR[Orn]VL[Abu]QLSAR[Orn]LLQDI[Nle]DR[hArg]-NH2
# SMILES: CCCC[C@H](NC(=O)[C@@H](NC(=O)[C@H](CC(=O)O)NC(=O)[C@H](CCC(N)=O)NC(=O)[C@H](CC(C)C)NC(=O)[C@H](CC(C)C)NC(=O)[C@H](CCCN)NC(=O)[C@H](CCCNC(=N)N)NC(=O)[C@H](C)NC(=O)[C@H](CO)NC(=O)[C@H](CC(C)C)NC(=O)[C@H](CCC(N)=O)NC(=O)[C@H](CC)NC(=O)[C@H](CC(C)C)NC(=O)[C@@H](NC(=O)[C@H](CCCN)NC(=O)[C@H](CCCNC(=N)N)NC(=O)[C@H](Cc1ccc(O)cc1)NC(=O)[C@H](CO)NC(=O)[C@H](CC(N)=O)NC(=O)[C@@H](NC(=O)[C@H](Cc1ccccc1)NC(=O)[C@@H](NC(=O)[C@H](C)NC(=O)[C@H](CC(=O)O)NC(=O)[C@@H](C)NC(=O)CCc1ccc(O)cc1)[C@@H](C)CC)[C@@H](C)O)C(C)C)[C@@H](C)CC)C(=O)N[C@@H](CC(=O)O)C(=O)N[C@@H](CCCNC(=N)N)C(=O)N[C@@H](CCCCNC(=N)N)C(N)=O
# Biological target: T1, GHRH receptor of human pituitary …
# Experiment: competition vs 125I-JV-1-42, human pituitary membranes
# Description: (§1) Normal human pituitaries were purchased from the National Hormone and Peptide Program (A.F. Parlow, Los Angeles, County Harbor-UCLA Medical Center, Torrance, Calif.).
Binder,IC50 [nM],relative affinity (binding potency) vs JI-38 [vs JI-38=1]
"[NMeY][dA]DAIFTQSYR[Orn]VL[Abu]QLSAR[Orn]LLQDI[Nle]D[Agmatine] [P-20361 [N-Me-Tyr^1, D-Ala^2, Gln^8, Orn^12, Abu^15, Orn^21, Nle^27, Asp^28, Agm^29]hGHRH(1-29)NH2]",0.82,5.3
B1,0.86,5.06
"[NMeY][dA]DAIFTNSYR[Orn]VL[Abu]QLSAR[Orn]LLQDI[Nle]D[Agmatine] [P-20367 [N-Me-Tyr^1, D-Ala^2, Orn^12, Abu^15, Orn^21, Nle^27, Asp^28, Agm^29]hGHRH(1-29)NH2]",1.7,2.56
B2,0.33,13.2
B3,3.44,1.26
B4,2.74,1.59
B5,1.44,3.02
B6,0.52,8.37

# Biological target: T1, GHRH receptor of human pituitary …
# Experiment: competition vs 125I-[His1,Nle27]hGHRH(1-32)NH2, human pituitary membranes
# Description: Normal human pituitary was purchased from the National Hormone and Peptide Program (UCLA Medical Center, Torrance, Calif.).
Binder,IC50 [nM],relative affinity (binding potency) compared to JI-38 [vs JI-38=1],relative affinity (binding potency) compared to hGHRH(1-29)
"[NMeY][dA]DAIFTQSYR[Orn]VL[Abu]QLSAR[Orn]LLQDI[Nle]D[Agmatine] [P-20361 [N-Me-Tyr^1, D-Ala^2, Gln^8, Orn^12, Abu^15, Orn^21, Nle^27, Asp^28, Agm^29]hGHRH(1-29)NH2]",1.19,2.3,6.42 vs hGHRH(1-29)NH2=1
B1,3.3,0.83,2.31 vs hGHRH(1-29)NH2=1
"[NMeY][dA]DAIFTNSYR[Orn]VL[Abu]QLSAR[Orn]LLQDI[Nle]D[Agmatine] [P-20367 [N-Me-Tyr^1, D-Ala^2, Orn^12, Abu^15, Orn^21, Nle^27, Asp^28, Agm^29]hGHRH(1-29)NH2]",1.09,2.51,7.01 vs hGHRH(1-29)NH2=1
B2,2.16,1.27,3.54 vs hGHRH(1-29)NH2=1
B3,3.87,0.71,1.98 vs hGHRH(1-29)NH2=1
B4,2.6,1.05,2.94 vs hGHRH(1-29)NH2=1
B5,2.85,0.96,2.68 vs hGHRH(1-29)NH2=1

# Biological target: T1, GHRH receptor of human pituitary …
# Experiment: as above
# Remark: another data set of the same source
# Description: as §1
Binder,IC50 [nM],relative affinity (binding potency) vs GHRH,relative affinity (binding potency) vs JI-38 [vs JI-38=1]
B7,0.14,42.3 vs GHRH(1-29)=1,13.9

# Biological target: T1, GHRH receptor of human pituitary …
# Experiment: competition vs 125I-JV-1-42, human pituitary membranes
# Remark: another data set of the same source
# Procedure: The final binding affinities were expressed as IC₅₀ values and were calculated by using the LIGAND PC computerized curve-fitting program of Munson and Rodbard as modified by McPherson.
Binder,IC50 [nM],relative affinity (binding potency) vs GHRH,relative affinity (binding potency) vs JI-38 [vs JI-38=1]
B1,0.05,81.2 vs GHRH(1-29)=1,34.2
B2,0.07,58 vs GHRH(1-29)=1,24.4
B6,0.04,102 vs GHRH(1-29)=1,42.7

# From patent publication US20180250358A1, “GHRH AGONISTS FOR THE TREATMENT OF ISCHEMIC DISORDERS” (published 2018)
